Reference: patent publication US20030119169A1

Target: truncated Mch3α (amino acids 199-303), p12 subunit (human) (UniProt P55210)
Assay: cell-based or functional assay

Sequence of truncated Mch3α (amino acids 199-303), p12 subunit (human) (P55210 199-303): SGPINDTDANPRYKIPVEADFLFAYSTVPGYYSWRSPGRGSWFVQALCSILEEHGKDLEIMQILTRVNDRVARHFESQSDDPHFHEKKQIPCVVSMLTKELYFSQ

“CPP32-p20 subunit (from UniProt P42574 29-175) (enzyme)” showed an apoptotic Sf9 cells on coexpression (percentage of cells) of over 50%.
